This note sets out measurements from publication PMC5220088.

Where no end group is shown, it is not given here. [ ]: non-standard residue; d: D form. The star is where a group is joined. EDDnp = O=[N+]([O-])c1ccc(NCCN*)c([N+](=O)[O-])c1; 2Abz = Nc1ccccc1C(=O)O

B1: Abz-KLRSYKQ-EDDnp (peptide)
peptide: [2Abz]KLRSYKQ-EDDnp
B2: Abz-KLRYSKQ-EDDnp (peptide)
peptide: [2Abz]KLRYSKQ-EDDnp
B3: Abz-KLRSIKQ-EDDnp (peptide)
peptide: [2Abz]KLRSIKQ-EDDnp
B4: Abz-KLQSSKQ-EDDnp (peptide)
peptide: [2Abz]KLQSSKQ-EDDnp
B5: Abz-KFRSSKQ-EDDnp (peptide)
peptide: [2Abz]KFRSSKQ-EDDnp
B6: Abz-VLRSSKQ-EDDnp (peptide)
peptide: [2Abz]VLRSSKQ-EDDnp

The first test concerns the target protease isolated from Eupenicillium javanicum (metalloprotease, 30 kDa) (Eupenicillium javanicum).
Turning to B1, the KM of the hydrolysis of the FRET peptide by the purified protease (Michaelis-Menten, pH 6.0, 45°C) came to 0.003 mM. Still for that read-out and setting: the value for B2 was 0.007 mM; that for B3 was 0.003 mM.

The target is the same in the next test. This is another data set of the same source.
With B4, the KM of the hydrolysis of the FRET peptide by the purified protease (Michaelis-Menten, pH 6.0, 45°C) amounted to 0.004 mM.

As to B5, the KM of the hydrolysis of the FRET peptide by the purified protease (Michaelis-Menten, pH 6.0, 45°C) amounted to 0.012 mM. Take B6: the KM of the hydrolysis of the FRET peptide by the purified protease (Michaelis-Menten, pH 6.0, 45°C) is 0.01 mM.
